From US20130004493

Target: T1, Epithelial membrane protein 2 (EMP2), human, P54851
T1 chain: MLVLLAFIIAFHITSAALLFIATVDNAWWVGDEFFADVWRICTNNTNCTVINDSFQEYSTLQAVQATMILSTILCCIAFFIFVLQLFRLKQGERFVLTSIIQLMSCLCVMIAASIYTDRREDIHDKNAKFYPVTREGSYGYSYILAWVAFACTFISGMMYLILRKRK

B1: Focal adhesion kinase (FAK), human (protein)
chain: AAAYLDPNLNHTPNSSTKTHLGTGMERSPGAMERVLKVFHYFESNSEPTTWASIIRHGDATDVRGIIQKIVDSHKVKHVACYGFRLSHLRSEEVHWLHVDMGVSSVREKYELAHPPEEWKYELRIRYLPKGFLNQFTEDKPTLNFFYQQVKSDYMLEIADQVDQEIALKLGCLEIRRSYWEMRGNALEKKSNYEVLEKDVGLKRFFPKSLLDSVKAKTLRKLIQQTFRQFANLNREESILKFFEILSPVYRFDKECFKCALGSSWIISVELAIGPEEGISYLTDKGCNPTHLADFTQVQTIQYSNSEDKDRKGMLQLKIAGAPEPLTVTAPSLTIAENMADLIDGYCRLVNGTSQSFIIRPQKEGERALPSIPKLANSEKQGMRTHAVSVSETDDYAEIIDEEDTYTMPSTRDYEIQRERIELGRCIGEGQFGDVHQGIYMSPENPALAVAIKTCKNCTSDSVREKFLQEALTMRQFDHPHIVKLIGVITENPVWIIMELCTLGELRSFLQVRKYSLDLASLILYAYQLSTALAYLESKRFVHRDIAARNVLVSSNDCVKLGDFGLSRYMEDSTYYKASKGKLPIKWMAPESINFRRFTSASDVWMFGVCMWEILMHGVKPFQGVKNNDVIGRIENGERLPMPPNCPPTLYSLMTKCWAYDPSRRPRFTELKAQLSTILEEEKAQQEERMRMESRRQATVSWDSGGSDEAPPKPSRPGYPSPRSSEGFYPSPQHMVQTNHYQVSGYPGSHGITAMAGSIYPGQASLLDQTDSWNHRPQEIAMWQPNVEDSTVLDLRGIGQVLPTHLMEERLIRQQQEMEEDQRWLEKEERFLKPDVRLSRGSIDREDGSLQGPIGNQHIYQPVGKPDPAAPPKKPPRPGAPGHLGSLASLSSPADSYNEGVKLQPQEISPPPTANLDRSNDKVYENVTGLVKAVIEMSSKIQPAPPEEYVPMVKEVGLALRTLLATVDETIPLLPASTHREIEMAQKLLNSDLGELINKMKLAQQYVMTSLQQEYKKQMLTAAHALAVDAKNLLDVIDQARLKMLGQTRPH
phosphorylation of FAK at Tyr-397, Tyr-407, Tyr-861 and Tyr-925 (quantitative Western blot, ARPE-19/EMP2 against ARPE-19): EMP2 overexpression enhanced phosphorylation of FAK two- to three-fold at Tyr-397, Tyr-407, Tyr-861, and Tyr-925
